B1: AhS5H1 (Arachis hypogaea) (protein)
chain: MANTKPLLLADQVTNMKHIPLNFIRPLNDRPNLQNLQSSNDNNESIPIIDLQGLDEDNDASNRSQIIHNIGQACQDYGFFQIVNHGVPEDVVGKMMKVGKAFFDLPESERMKNYSDDPSKTTRLSTSFNVKTEKVANWRDFLRLHCHPLEDYIQEWPTNPPSFREDVGEYSKHMRKLSLKLLEAISESLGLEKDYMEKALGKHGQHMAINYYPPCPEPDLTYGLPAHADPNAITILLQNHVPGLQVLKDGHWVTVKHVPNTFIVNIGDQIQVISNDKYKSVLHRALVNCEKERMSIPTFYCPSPEALVGPAPQLIDQHNDPPKYTNFTYAEYYHKFWNRGLSKETCVDLFKV
notes: full ORF 1059 bp, 353 residues as printed; modified pGEX (GST) vector with C-terminal 3xMyc; E. coli BL21(DE3); glutathione Sepharose purified; tag removal not mentioned

What was measured:
O=C(O)c1ccccc1O = test system: T1, O=C(O)c1ccccc1O; experiment: purified protein; assay type: biochemical, Arachis hypogaea; conditions: 1 mM 2-oxoglutarate, 1 mM ascorbate, 0.4 mM FeSO4, 0.1 mg/mL catalase, 5 mM DTT, 50 mM phosphate pH 6.8, 40 °C, 30 min
T1 construct: full ORF 1014 bp, 338 residues as printed; modified pGEX (GST) vector with C-terminal 3xMyc; E. coli BL21(DE3); glutathione Sepharose purified; tag removal not mentioned

purified protein = substrate: O=C(O)c1ccccc1O; experiment: purified protein; assay type: biochemical, Arachis hypogaea; conditions: 1 mM 2-oxoglutarate, 1 mM ascorbate, 0.4 mM FeSO4, 0.1 mg/mL catalase, 5 mM DTT, 50 mM phosphate pH 6.8, 40 °C, 30 min

| Molecule | Km (O=C(O)c1ccccc1O) [µM] | Km (purified protein) [µM] |
| --- | --- | --- |
| AhS5H2 (Arachis hypogaea) | 190.52 ± 26.33 |  |
| B1 |  | 44.72 ± 6.95 |

Reference: paper PMC10531710, “Overexpression of the First Peanut-Susceptible Gene, AhS5H1 or AhS5H2, Enhanced Susceptibility to Pst DC3000 in Arabidopsis” (International Journal of Molecular Sciences, 2023)
